# According to the supplement of paper PMC9112550, “Optimization of the antimicrobial peptide Bac7 by deep mutational scanning” (BMC Biology, 2022):
# Test system: Escherichia coli TOP10
# Assay: shrunken log2 fold change of peptide-encoding DNA abundance (4.5 h post-induction vs induction); higher = less antimicrobial activity (less host growth inhibition)
# Details: time post-induction: 4.5 h; library: site-saturation at positions 5, 18, 19, 20
# 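Note: peptides expressed intracellularly from a pBAD plasmid library in pooled LB shake-flask culture, induced with 0.3% L-arabinose, DNA abundance read by NGS, three biological replicates, DESeq2 with apeglm shrinkage.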
row,Sequence,shrunken log2 fold change
1,RRIRSRPPRLPRPRPRPRQHPRP,0.169
2,RRIRQRPPRLPRPRPRPYRHPRP,-0.268
3,RRIRIRPPRLPRPRPRPYDLPRP,-0.427
4,RRIRNRPPRLPRPRPRPWIEPRP,-0.042
5,RRIRYRPPRLPRPRPRPPTGPRP,0.0896
6,RRIRARPPRLPRPRPRPNCDPRP,0.476
7,RRIRWRPPRLPRPRPRPQLGPRP,0.276
8,RRIRFRPPRLPRPRPRPILCPRP,-0.192
9,RRIRARPPRLPRPRPRPHGFPRP,-0.00228
10,RRIRERPPRLPRPRPRPDEAPRP,0.323
11,RRIRDRPPRLPRPRPRPHELPRP,-0.124
12,RRIRCRPPRLPRPRPRPAGAPRP,0.417
13,RRIRGRPPRLPRPRPRPLHYPRP,-0.0826
14,RRIRERPPRLPRPRPRPIYWPRP,-0.0719
15,RRIRCRPPRLPRPRPRPIHTPRP,-0.527
16,RRIRFRPPRLPRPRPRPRHEPRP,0.197
17,RRIRVRPPRLPRPRPRPKQVPRP,-0.0801
18,RRIRLRPPRLPRPRPRPWCCPRP,-0.234
19,RRIRVRPPRLPRPRPRPNPVPRP,-0.242
20,RRIRMRPPRLPRPRPRPKARPRP,1.61
21,RRIRERPPRLPRPRPRPCRVPRP,-0.25
22,RRIRDRPPRLPRPRPRPDKGPRP,-0.0944
23,RRIRLRPPRLPRPRPRPAERPRP,0.139
24,RRIRPRPPRLPRPRPRPALPPRP,1.63
25,RRIRDRPPRLPRPRPRPNIYPRP,-0.3

row,Sequence,shrunken log2 fold change
1,RRIRPRPPRLPRPRPRPRNEPRP,0.139
2,RRIRYRPPRLPRPRPRPKGWPRP,0.465
3,RRIRRRPPRLPRPRPRPARCPRP,0.42
4,RRIRKRPPRLPRPRPRPCKIPRP,-0.248
5,RRIRTRPPRLPRPRPRPSKYPRP,0.557
6,RRIRARPPRLPRPRPRPPMQPRP,0.781
7,RRIRKRPPRLPRPRPRPWQMPRP,0.0764
8,RRIRSRPPRLPRPRPRPFDWPRP,-0.0461
9,RRIRMRPPRLPRPRPRPDVEPRP,3.52
10,RRIRCRPPRLPRPRPRPIVQPRP,0.0655
11,RRIRFRPPRLPRPRPRPTEPPRP,0.00236
12,RRIRDRPPRLPRPRPRPSPFPRP,-0.0929
13,RRIRIRPPRLPRPRPRPYGHPRP,0.0184
14,RRIRARPPRLPRPRPRPADVPRP,0.118
15,RRIRYRPPRLPRPRPRPRACPRP,-0.143
16,RRIRNRPPRLPRPRPRPMDMPRP,-0.235
17,RRIRCRPPRLPRPRPRPRINPRP,-0.0891
18,RRIRKRPPRLPRPRPRPRAMPRP,-0.107
19,RRIRPRPPRLPRPRPRPFSCPRP,-0.106
20,RRIRFRPPRLPRPRPRPYSCPRP,-0.388
21,RRIRGRPPRLPRPRPRPDNHPRP,0.125
22,RRIRFRPPRLPRPRPRPEERPRP,0.477
23,RRIRLRPPRLPRPRPRPARTPRP,0.468
24,RRIRTRPPRLPRPRPRPLFCPRP,-0.287
25,RRIRYRPPRLPRPRPRPHMTPRP,-0.845

row,Sequence,shrunken log2 fold change
1,RRIRGRPPRLPRPRPRPQTHPRP,1.41
2,RRIRDRPPRLPRPRPRPHPVPRP,-0.0422
3,RRIRDRPPRLPRPRPRPSDTPRP,-0.343
4,RRIRMRPPRLPRPRPRPCFPPRP,0.157
5,RRIRCRPPRLPRPRPRPNDPPRP,0.0328
6,RRIRWRPPRLPRPRPRPASRPRP,-0.00682
7,RRIRVRPPRLPRPRPRPYGNPRP,-0.0775
8,RRIRGRPPRLPRPRPRPWHQPRP,1.75
9,RRIRGRPPRLPRPRPRPWNNPRP,0.139
10,RRIRIRPPRLPRPRPRPMLQPRP,-0.452
11,RRIRSRPPRLPRPRPRPNLVPRP,-0.0453
12,RRIRGRPPRLPRPRPRPQLDPRP,0.646
13,RRIRGRPPRLPRPRPRPGSDPRP,1.06
14,RRIRCRPPRLPRPRPRPQHRPRP,-0.246
15,RRIRTRPPRLPRPRPRPMGEPRP,-0.0305
16,RRIRWRPPRLPRPRPRPWLIPRP,0.112
17,RRIRQRPPRLPRPRPRPVCSPRP,-0.21
18,RRIRWRPPRLPRPRPRPKNFPRP,-0.188
19,RRIRGRPPRLPRPRPRPAKPPRP,0.82
20,RRIRLRPPRLPRPRPRPPMMPRP,-0.149
21,RRIRGRPPRLPRPRPRPDSWPRP,0.627
22,RRIRIRPPRLPRPRPRPTTIPRP,-0.578
23,RRIRCRPPRLPRPRPRPCIAPRP,-0.11
24,RRIRRRPPRLPRPRPRPELKPRP,0.254
25,RRIRRRPPRLPRPRPRPTHWPRP,0.988

row,Sequence,shrunken log2 fold change
1,RRIRDRPPRLPRPRPRPGEHPRP,0.0372
2,RRIRDRPPRLPRPRPRPERHPRP,1.06
3,RRIRMRPPRLPRPRPRPQYKPRP,-0.0699
4,RRIRTRPPRLPRPRPRPSENPRP,-0.0993
5,RRIRMRPPRLPRPRPRPKGQPRP,1.28
6,RRIRNRPPRLPRPRPRPCRKPRP,-0.0373
7,RRIRRRPPRLPRPRPRPRHAPRP,0.746
8,RRIRYRPPRLPRPRPRPLHLPRP,-0.516
9,RRIRLRPPRLPRPRPRPFISPRP,-0.182
10,RRIRLRPPRLPRPRPRPYRCPRP,-0.268
11,RRIRARPPRLPRPRPRPGSDPRP,0.536
12,RRIRTRPPRLPRPRPRPEDKPRP,-0.0305
13,RRIRTRPPRLPRPRPRPYLGPRP,-0.00172
14,RRIRDRPPRLPRPRPRPQHYPRP,-0.856
15,RRIRSRPPRLPRPRPRPCKNPRP,-0.283
16,RRIRIRPPRLPRPRPRPNAPPRP,0.00635
17,RRIRTRPPRLPRPRPRPNTPPRP,-0.17
18,RRIRARPPRLPRPRPRPSRAPRP,0.555
19,RRIRNRPPRLPRPRPRPGAFPRP,-0.0452
20,RRIRHRPPRLPRPRPRPINNPRP,-0.7
21,RRIRSRPPRLPRPRPRPYQVPRP,-0.0683
22,RRIRERPPRLPRPRPRPRYHPRP,-0.0105
23,RRIRWRPPRLPRPRPRPYPLPRP,-0.0066
24,RRIRKRPPRLPRPRPRPVAAPRP,0.721
25,RRIRDRPPRLPRPRPRPNYMPRP,-0.216

row,Sequence,shrunken log2 fold change
1,RRIRLRPPRLPRPRPRPRWSPRP,0.129
2,RRIRMRPPRLPRPRPRPYCMPRP,-0.53
3,RRIRDRPPRLPRPRPRPGMNPRP,0.164
4,RRIRIRPPRLPRPRPRPGGMPRP,-0.0648
5,RRIRIRPPRLPRPRPRPGGWPRP,0.56
6,RRIRHRPPRLPRPRPRPARCPRP,0.252
7,RRIRERPPRLPRPRPRPLDPPRP,-0.102
8,RRIRMRPPRLPRPRPRPSHFPRP,-0.274
9,RRIRMRPPRLPRPRPRPWWSPRP,0.334
10,RRIRERPPRLPRPRPRPMHSPRP,0.0314
11,RRIRSRPPRLPRPRPRPAEGPRP,0.29
12,RRIRLRPPRLPRPRPRPSKFPRP,-0.276
13,RRIRYRPPRLPRPRPRPHGYPRP,-0.0146
14,RRIRVRPPRLPRPRPRPCFTPRP,-0.0879
15,RRIRRRPPRLPRPRPRPHEYPRP,-0.0758
16,RRIRGRPPRLPRPRPRPNMSPRP,0.161
17,RRIRPRPPRLPRPRPRPFDIPRP,-0.395
18,RRIRSRPPRLPRPRPRPPNFPRP,0.291
19,RRIRQRPPRLPRPRPRPCLEPRP,0.0782
20,RRIRVRPPRLPRPRPRPTYFPRP,-0.0832
21,RRIRERPPRLPRPRPRPIHAPRP,0.0259
22,RRIRYRPPRLPRPRPRPKSPPRP,0.0245
23,RRIRHRPPRLPRPRPRPMRVPRP,-0.0146
24,RRIRLRPPRLPRPRPRPHIIPRP,0.0077
25,RRIRARPPRLPRPRPRPQSGPRP,-0.0719

row,Sequence,shrunken log2 fold change
1,RRIRERPPRLPRPRPRPPWTPRP,-0.0555
2,RRIRPRPPRLPRPRPRPSIQPRP,-0.696
3,RRIRLRPPRLPRPRPRPKTIPRP,-0.109
4,RRIRIRPPRLPRPRPRPWPCPRP,-0.0182
5,RRIRLRPPRLPRPRPRPGDCPRP,0.0644
6,RRIRTRPPRLPRPRPRPVGGPRP,0.837
7,RRIRKRPPRLPRPRPRPVWKPRP,0.138
8,RRIRARPPRLPRPRPRPCLVPRP,0.0528
9,RRIRCRPPRLPRPRPRPPFCPRP,0.291
10,RRIRTRPPRLPRPRPRPVENPRP,-0.146
11,RRIRARPPRLPRPRPRPDCMPRP,0.386
12,RRIRCRPPRLPRPRPRPGGGPRP,0.76
13,RRIRHRPPRLPRPRPRPKKPPRP,-0.125
14,RRIRWRPPRLPRPRPRPYVRPRP,-0.0178
15,RRIRGRPPRLPRPRPRPFPVPRP,0.291
16,RRIRARPPRLPRPRPRPRIIPRP,0.093
17,RRIRARPPRLPRPRPRPSGMPRP,0.197
18,RRIRHRPPRLPRPRPRPQHIPRP,-0.595
19,RRIRLRPPRLPRPRPRPFCMPRP,-0.623
20,RRIRFRPPRLPRPRPRPEQNPRP,0.264
21,RRIRNRPPRLPRPRPRPMKTPRP,-0.0393
22,RRIRSRPPRLPRPRPRPAWWPRP,0.23
23,RRIRWRPPRLPRPRPRPVLQPRP,0.177
24,RRIRYRPPRLPRPRPRPVQIPRP,-0.146
25,RRIRDRPPRLPRPRPRPCGFPRP,-0.0017
